From article PMC4405178 (Biochemistry, 2015)

Key:
Assay in all cases: flow cytometry on cells
full-length Ste2p V49D = biological target: T1, full-length Ste2p V49D (Saccharomyces cerevisiae, UniProt D6VTK4 1-431, V49D)
T1 sequence (looked up): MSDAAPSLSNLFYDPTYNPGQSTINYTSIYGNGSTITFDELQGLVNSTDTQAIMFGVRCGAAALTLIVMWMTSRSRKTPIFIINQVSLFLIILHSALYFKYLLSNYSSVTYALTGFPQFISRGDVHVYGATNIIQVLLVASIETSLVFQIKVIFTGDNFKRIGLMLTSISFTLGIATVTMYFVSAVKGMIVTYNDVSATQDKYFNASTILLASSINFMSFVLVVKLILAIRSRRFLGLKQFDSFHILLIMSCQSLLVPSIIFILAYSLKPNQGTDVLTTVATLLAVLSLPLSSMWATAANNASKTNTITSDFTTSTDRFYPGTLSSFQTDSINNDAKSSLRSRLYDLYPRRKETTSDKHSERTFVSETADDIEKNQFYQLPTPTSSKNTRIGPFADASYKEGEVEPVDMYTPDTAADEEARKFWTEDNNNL

[1] = biological target: T2, C-terminally truncated wild-type Ste2p (Saccharomyces cerevisiae, UniProt D6VTK4 1-303)
T2 sequence (looked up): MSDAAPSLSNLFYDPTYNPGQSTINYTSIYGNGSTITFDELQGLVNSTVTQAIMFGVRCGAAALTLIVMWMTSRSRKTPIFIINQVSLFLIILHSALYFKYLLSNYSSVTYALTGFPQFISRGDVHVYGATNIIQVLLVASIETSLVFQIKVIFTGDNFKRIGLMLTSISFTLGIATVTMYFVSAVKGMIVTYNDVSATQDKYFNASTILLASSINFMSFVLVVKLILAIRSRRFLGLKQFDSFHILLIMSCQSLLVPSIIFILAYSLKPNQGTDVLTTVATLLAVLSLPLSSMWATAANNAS

[2] = biological target: T3, C-terminally truncated Ste2p V49D (Saccharomyces cerevisiae, UniProt D6VTK4 1-303, V49D)
T3 sequence (looked up): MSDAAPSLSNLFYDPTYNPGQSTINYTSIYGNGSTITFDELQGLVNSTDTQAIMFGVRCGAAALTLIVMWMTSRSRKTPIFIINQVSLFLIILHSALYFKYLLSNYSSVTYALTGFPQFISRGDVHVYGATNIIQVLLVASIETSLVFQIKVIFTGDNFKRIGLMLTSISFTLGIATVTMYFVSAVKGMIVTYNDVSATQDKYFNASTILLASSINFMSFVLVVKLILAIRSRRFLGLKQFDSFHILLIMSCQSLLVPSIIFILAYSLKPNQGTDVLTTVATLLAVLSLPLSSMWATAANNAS

[3] = biological target: T4, C-terminally truncated Ste2p F38Y (Saccharomyces cerevisiae, UniProt D6VTK4 1-303, F38Y)
T4 sequence (looked up): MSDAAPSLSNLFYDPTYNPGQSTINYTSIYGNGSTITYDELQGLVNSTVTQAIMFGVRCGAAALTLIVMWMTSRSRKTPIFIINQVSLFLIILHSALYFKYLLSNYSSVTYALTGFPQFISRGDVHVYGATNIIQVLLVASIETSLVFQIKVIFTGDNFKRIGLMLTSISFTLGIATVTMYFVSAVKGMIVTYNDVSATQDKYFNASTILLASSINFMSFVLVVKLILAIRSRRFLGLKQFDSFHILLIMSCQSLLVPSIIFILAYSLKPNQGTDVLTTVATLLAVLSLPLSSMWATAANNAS

full-length Ste2p H94Y = biological target: T5, full-length Ste2p H94Y (Saccharomyces cerevisiae, UniProt D6VTK4 1-431, H94Y)
T5 sequence (looked up): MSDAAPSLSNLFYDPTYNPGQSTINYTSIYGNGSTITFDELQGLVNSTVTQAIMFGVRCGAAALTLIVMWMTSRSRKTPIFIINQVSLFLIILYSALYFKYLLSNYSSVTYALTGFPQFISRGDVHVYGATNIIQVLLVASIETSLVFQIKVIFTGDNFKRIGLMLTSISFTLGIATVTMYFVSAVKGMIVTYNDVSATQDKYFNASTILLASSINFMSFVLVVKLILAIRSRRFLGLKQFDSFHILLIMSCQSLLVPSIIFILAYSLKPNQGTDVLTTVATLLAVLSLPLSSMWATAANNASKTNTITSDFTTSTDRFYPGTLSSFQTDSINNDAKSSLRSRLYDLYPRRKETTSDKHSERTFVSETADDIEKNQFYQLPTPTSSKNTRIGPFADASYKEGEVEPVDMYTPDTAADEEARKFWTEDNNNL

- Kd (full-length Ste2p V49D): 49 ± 20 nM
- Kd [1]: 45 ± 1.7 nM
- Kd [2]: 35 ± 4 nM
- Kd [3]: 64 ± 7.9 nM
- Kd (full-length Ste2p H94Y): 5.2 ± 2.1 nM
B1: [K^7(NBD),Nle^12] α-factor (peptide)
chain: WHWLQLKPGQPMY
modifications: NBD (7-nitrobenz-2-oxa-1,3-diazol-4-yl) conjugated to the lysine at position 7; norleucine at position 12 in place of methionine
